Measured values reported in PMC9394474.

B1: unnamed (parent)
chain 1: TIEALFQ
chain 2: not shown

Variants of: B1
Assay: ITC
Conditions: with partner chain of the complex shown

Row | Variant | Kd [µM]
1 | chain 1 T1A | 17
